Reference: US20050214890

Tested on: GST-RFP-SPSS/FXa-GFP-His6 fluorescent fusion protein [GST: P08515]

coagulation factor Xa
SDS-PAGE and Western blot of substrate cleavage products (GST-RFP and GFP-His): demonstrated specific cleavage of the substrate by FXa, as the amounts of the native proteins decreased while the amounts of the two truncated products (GST-RFP and GFP-His) increased with increasing concentrations of FXa
